According to patent US5854216A, “Marker for growth hormone-releasing factor receptors” (Universite de Montreal, priority 1996, dated 1998):
Square brackets hold non-standard residues; d marks the D form. Peptide text beside a SMILES is read from it.

biological target: T1, GRF receptor of rat adenopituitary (rat, UniProt Q02644-2); assay: displacement of 125I-Tyr10 hGRF(1-44)NH2 from rat anterior pituitary homogenate; conditions: not given
T1 sequence: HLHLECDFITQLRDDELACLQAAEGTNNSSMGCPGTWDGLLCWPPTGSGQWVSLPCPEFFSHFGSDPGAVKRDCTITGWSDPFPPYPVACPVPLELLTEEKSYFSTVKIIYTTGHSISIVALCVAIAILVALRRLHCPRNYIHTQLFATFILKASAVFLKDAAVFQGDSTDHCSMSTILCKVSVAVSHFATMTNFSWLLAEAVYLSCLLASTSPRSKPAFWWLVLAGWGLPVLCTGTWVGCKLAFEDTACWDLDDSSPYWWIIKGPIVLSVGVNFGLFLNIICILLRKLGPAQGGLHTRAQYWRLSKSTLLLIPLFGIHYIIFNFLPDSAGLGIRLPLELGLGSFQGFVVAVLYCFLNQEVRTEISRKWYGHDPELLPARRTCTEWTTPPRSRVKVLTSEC

Row | IC50 [nM] | Relative affinity (%) against hGRF(1-29)NH2 [%] | Molecule
1 | 5.77 | 45 | 4'-benzoyl-phenylalyl^10 !hGRF(1-29)NH2 (from UniProt P01286) (peptide)
2 | 4.43 | 60 | 4'-nitro-phenylalanine^10 !hGRF(1-29)NH2 (from UniProt P01286) (peptide)
3 | 9.97 | 27 | 4'-nitro-phenylanalylalanine^9 !hGRF(1-29)NH2 (from UniProt P01286) (peptide)
4 | – | 1330 | D-Ala^2, Ala^8, Ala^15, Lys^22 analogue of hGRF(1-29)NH2 (Table 11, No. 13) (from UniProt P01286) (peptide)
5 | 0.48 | 500 | D-Ala^2, Ala^8, D-Tyr^10, Ala^15, D-Lys^21, Lys^22 analogue of hGRF(1-29)NH2 (Table 11, No. 14) (from UniProt P01286) (peptide)
6 | – | 104 | D-Ala^2, D-Tyr^10,D-Ala^15,Lys^22 ! hGRF(1-29)NH2 (from UniProt P01286) (peptide)
7 | 9.65 | 25 | D-Ala^2,D-Tyr^10 ! hGRF(1-29)NH2 (from UniProt P01286) (peptide)
8 | 11.6 | 21 | D-Ala^2,D-Tyr^10, D-Lys^21 ! hGRF(1-29)NH2 (from UniProt P01286) (peptide)
9 | – | 490 | D-Ala^2,D-Tyr^10,Lys^22 ! hGRF(1-29)NH2 (from UniProt P01286) (peptide)
10 | 4.4 | 61 | His^1, bpa^9, Nle^27 analogue of hGRF(1-29)NH2 (Table 7, number 17) (from UniProt P01286) (peptide)
11 | 34.5 | 8 | bpa^0 analogue of hGRF(1-29)NH2 (Table 7, number 13) (from UniProt P01286) (peptide)
12 | 64.7 | 4 | bpa^4 analogue of hGRF(1-29)NH2 (Table 7, number 14) (from UniProt P01286) (peptide)
13 | 28.4 | 9 | bpa^9 analogue of hGRF(1-29)NH2 (Table 7, number 15) (from UniProt P01286) (peptide)
14 | – | 14 | npa0 analogue of hGRF(1-29)NH2 (Table 7, number 2) (from UniProt P01286) (peptide)
15 | 376 | 7 | npa^1 analogue of hGRF(1-29)NH2 (Table 7, number 3) (from UniProt P01286) (peptide)
16 | 751 | 0.3 | npa^2 analogue of hGRF(1-29)NH2 (Table 7, number 4) (from UniProt P01286) (peptide)
17 | 197 | 1.3 | npa^3 analogue of hGRF(1-29)NH2 (Table 7, number 5) (from UniProt P01286) (peptide)
18 | 8.65 | 31 | npa^4 analogue of hGRF(1-29)NH2 (Table 7, number 6) (from UniProt P01286) (peptide)
19 | 27.7 | 10 | npa^5 analogue of hGRF(1-29)NH2 (Table 7, number 7) (from UniProt P01286) (peptide)
20 | 30.9 | 8.6 | npa^6 analogue of hGRF(1-29)NH2 (Table 7, number 8) (from UniProt P01286) (peptide)
21 | 33.7 | 7.9 | npa^7 analogue of hGRF(1-29)NH2 (Table 7, number 9) (from UniProt P01286) (peptide)
22 | 54.1 | 5 | npa^8 analogue of hGRF(1-29)NH2 (Table 7, number 10) (from UniProt P01286) (peptide)
23 | – | 35 | octanoyl^30,Cys^31 ! hGRF(1-29)NH2 (from UniProt P01286) (peptide)

biological target: T2, GRF receptors ([^125 I-Tyr^10 ]hGRF(1-44)NH2 binding sites in rat adenopituitary) (Rattus norvegicus, UniProt Q02644); assay: Competitive binding assay with [^125 I-Tyr^10 ]hGRF(1-44)NH2 on anterior pituitary homogenates; conditions: not given
T2 construct: from tissue; host or cells: rat anterior pituitary homogenate
T2 sequence (Q02644 23-423 isoform Q02644-2 limits assumed): T1 sequence
Protocol: The binding of [^125 I-Tyr^10 ]hGRF(1-44)NH2 was performed on anterior pituitary homogenates as previously described (Gaudreau P. et al., J. Biol. Chem., 1992, 35:1864-1869). Briefly, anterior pituitaries (pit.) were dissected out, rinsed and homogenized for 8 sec with a Micro Ultrasonic Cell Disrupter™, in ice-cold 50 mM Tris-HCl buffer, pH 7.4, containing 5 mM MgCl2 and 5 mM EDTA (1 pit./0.5 ml). These homogenates were used immediately. Competition studies were performed using 35-50 pM [^125 I-Tyr^10 ]hGRF(1-44)NH2 as radio-ligand,50 μl of homogenate (70 to 75 μg of protein), and increasing concentrations of Nε-CF-[Lys^31 ]hGRF or other GRF analogues (0-1000 nM) or with 2.4 μM rGRF(1-29)NH2 for determination of non-specific binding, in a total volume of 300 μl of Tris-HCl buffer, pH 7.4, containing 5 mM EDTA, 5 mM MgCl2 and 0.42% BSA. Incubations were carried out at 23° C. for 60 min and stopped by centrifugation (12,000 g, 5 min, at 4° C.). The radioactivity content in the pellet was measured by gamma counting. The affinity of hGRF(1-29)NH2 was tested in each experiment to assess the validity of the assay and determine the relative affinity of the analogues. […] The Hill values indicate that all these peptides bind to the high and low affinity GRF binding sites found in the anterior pituitary.

Row | IC50 (in words) | affinity for adenopituitary GRF receptors (in words) | Molecule
24 | low nanomolar range | high affinity | 4'-benzoyl-phenylalyl^10 ]hGRF(1-29)NH2 [bpa^10]

same assay, conditions: Table 11

Row | Hill coef. | Molecule
25 | 0.63 ± 0.07 | CC[C@H](C)[C@H](NC(=O)[C@H](C)NC(=O)[C@H](CC(=O)O)NC(=O)[C@@H](C)NC(=O)[C@@H](N)Cc1ccc(O)cc1)C(=O)N[C@@H](Cc1ccccc1)C(=O)N[C@H](C(=O)N[C@@H](C)C(=O)N[C@@H](CO)C(=O)N[C@H](Cc1ccc(O)cc1)C(=O)N[C@@H](CCCNC(=N)N)C(=O)N[C@@H](CCCCN)C(=O)N[C@H](C(=O)N[C@@H](CC(C)C)C(=O)N[C@@H](C)C(=O)N[C@@H](CCC(N)=O)C(=O)N[C@@H](CC(C)C)C(=O)N[C@@H](CO)C(=O)N[C@@H](C)C(=O)N[C@@H](CCCNC(=N)N)C(=O)N[C@H](CCCCN)C(=O)N[C@@H](CCCCN)C(=O)N[C@@H](CC(C)C)C(=O)N[C@@H](CCC(N)=O)C(=O)N[C@@H](CC(=O)O)C(=O)N[C@H](C(=O)N[C@@H](CCSC)C(=O)N[C@@H](CO)C(=O)N[C@@H](CCCNC(=N)N)C(N)=O)[C@@H](C)CC)C(C)C)[C@@H](C)O (H-Y[dA]DAIFTAS[dY]RKVLAQLSAR[dK]KLQDIMSR-NH2)
26 | 0.53 ± 0.06 | CC[C@H](C)[C@H](NC(=O)[C@H](C)NC(=O)[C@H](CC(=O)O)NC(=O)[C@@H](C)NC(=O)[C@@H](N)Cc1ccc(O)cc1)C(=O)N[C@@H](Cc1ccccc1)C(=O)N[C@H](C(=O)N[C@@H](C)C(=O)N[C@@H](CO)C(=O)N[C@@H](Cc1ccc(O)cc1)C(=O)N[C@@H](CCCNC(=N)N)C(=O)N[C@@H](CCCCN)C(=O)N[C@H](C(=O)N[C@@H](CC(C)C)C(=O)N[C@@H](C)C(=O)N[C@@H](CCC(N)=O)C(=O)N[C@@H](CC(C)C)C(=O)N[C@@H](CO)C(=O)N[C@@H](C)C(=O)N[C@@H](CCCNC(=N)N)C(=O)N[C@@H](CCCCN)C(=O)N[C@@H](CCCCN)C(=O)N[C@@H](CC(C)C)C(=O)N[C@@H](CCC(N)=O)C(=O)N[C@@H](CC(=O)O)C(=O)N[C@H](C(=O)N[C@@H](CCSC)C(=O)N[C@@H](CO)C(=O)N[C@@H](CCCNC(=N)N)C(N)=O)[C@@H](C)CC)C(C)C)[C@@H](C)O [D-Ala^2, Ala^8, Ala^15, Lys^22] (H-Y[dA]DAIFTASYRKVLAQLSARKKLQDIMSR-NH2; N-terminus assumed)

same assay, conditions: Table 11; mean±SD of 2 or mean±SE of 3 experiments for analogues, mean±SE of 11 for hGRF(1-29)NH2

Row | IC50 [nM] | Molecule
27 | 0.18 ± 0.08 | CC[C@H](C)[C@H](NC(=O)[C@H](C)NC(=O)[C@H](CC(=O)O)NC(=O)[C@@H](C)NC(=O)[C@@H](N)Cc1ccc(O)cc1)C(=O)N[C@@H](Cc1ccccc1)C(=O)N[C@H](C(=O)N[C@@H](C)C(=O)N[C@@H](CO)C(=O)N[C@@H](Cc1ccc(O)cc1)C(=O)N[C@@H](CCCNC(=N)N)C(=O)N[C@@H](CCCCN)C(=O)N[C@H](C(=O)N[C@@H](CC(C)C)C(=O)N[C@@H](C)C(=O)N[C@@H](CCC(N)=O)C(=O)N[C@@H](CC(C)C)C(=O)N[C@@H](CO)C(=O)N[C@@H](C)C(=O)N[C@@H](CCCNC(=N)N)C(=O)N[C@@H](CCCCN)C(=O)N[C@@H](CCCCN)C(=O)N[C@@H](CC(C)C)C(=O)N[C@@H](CCC(N)=O)C(=O)N[C@@H](CC(=O)O)C(=O)N[C@H](C(=O)N[C@@H](CCSC)C(=O)N[C@@H](CO)C(=O)N[C@@H](CCCNC(=N)N)C(N)=O)[C@@H](C)CC)C(C)C)[C@@H](C)O [D-Ala^2, Ala^8, Ala^15, Lys^22] (H-Y[dA]DAIFTASYRKVLAQLSARKKLQDIMSR-NH2; N-terminus assumed)
28 | 2.49 ± 0.98 | CC[C@H](C)[C@H](NC(=O)[C@H](C)NC(=O)[C@H](CC(=O)O)NC(=O)[C@@H](C)NC(=O)[C@@H](N)Cc1ccc(O)cc1)C(=O)N[C@@H](Cc1ccccc1)C(=O)N[C@H](C(=O)N[C@@H](CC(N)=O)C(=O)N[C@@H](CO)C(=O)N[C@H](Cc1ccc(O)cc1)C(=O)N[C@@H](CCCNC(=N)N)C(=O)N[C@@H](CCCCN)C(=O)N[C@H](C(=O)N[C@@H](CC(C)C)C(=O)N[C@H](C)C(=O)N[C@@H](CCC(N)=O)C(=O)N[C@@H](CC(C)C)C(=O)N[C@@H](CO)C(=O)N[C@@H](C)C(=O)N[C@@H](CCCNC(=N)N)C(=O)N[C@@H](CCCCN)C(=O)N[C@@H](CCCCN)C(=O)N[C@@H](CC(C)C)C(=O)N[C@@H](CCC(N)=O)C(=O)N[C@@H](CC(=O)O)C(=O)N[C@H](C(=O)N[C@@H](CCSC)C(=O)N[C@@H](CO)C(=O)N[C@@H](CCCNC(=N)N)C(N)=O)[C@@H](C)CC)C(C)C)[C@@H](C)O [D-Ala^2, D-Tyr^10, D-Ala^15, Lys^22] (H-Y[dA]DAIFTNS[dY]RKVL[dA]QLSARKKLQDIMSR-NH2)

same assay, conditions: Table 11; ratio IC50 of hGRF(1-29)NH2 /IC50 analogue

Row | Relative affinity [%] | Molecule
29 | 500 ± 91 | CC[C@H](C)[C@H](NC(=O)[C@H](C)NC(=O)[C@H](CC(=O)O)NC(=O)[C@@H](C)NC(=O)[C@@H](N)Cc1ccc(O)cc1)C(=O)N[C@@H](Cc1ccccc1)C(=O)N[C@H](C(=O)N[C@@H](C)C(=O)N[C@@H](CO)C(=O)N[C@H](Cc1ccc(O)cc1)C(=O)N[C@@H](CCCNC(=N)N)C(=O)N[C@@H](CCCCN)C(=O)N[C@H](C(=O)N[C@@H](CC(C)C)C(=O)N[C@@H](C)C(=O)N[C@@H](CCC(N)=O)C(=O)N[C@@H](CC(C)C)C(=O)N[C@@H](CO)C(=O)N[C@@H](C)C(=O)N[C@@H](CCCNC(=N)N)C(=O)N[C@H](CCCCN)C(=O)N[C@@H](CCCCN)C(=O)N[C@@H](CC(C)C)C(=O)N[C@@H](CCC(N)=O)C(=O)N[C@@H](CC(=O)O)C(=O)N[C@H](C(=O)N[C@@H](CCSC)C(=O)N[C@@H](CO)C(=O)N[C@@H](CCCNC(=N)N)C(N)=O)[C@@H](C)CC)C(C)C)[C@@H](C)O (H-Y[dA]DAIFTAS[dY]RKVLAQLSAR[dK]KLQDIMSR-NH2)
30 | 1333 ± 31 | CC[C@H](C)[C@H](NC(=O)[C@H](C)NC(=O)[C@H](CC(=O)O)NC(=O)[C@@H](C)NC(=O)[C@@H](N)Cc1ccc(O)cc1)C(=O)N[C@@H](Cc1ccccc1)C(=O)N[C@H](C(=O)N[C@@H](C)C(=O)N[C@@H](CO)C(=O)N[C@@H](Cc1ccc(O)cc1)C(=O)N[C@@H](CCCNC(=N)N)C(=O)N[C@@H](CCCCN)C(=O)N[C@H](C(=O)N[C@@H](CC(C)C)C(=O)N[C@@H](C)C(=O)N[C@@H](CCC(N)=O)C(=O)N[C@@H](CC(C)C)C(=O)N[C@@H](CO)C(=O)N[C@@H](C)C(=O)N[C@@H](CCCNC(=N)N)C(=O)N[C@@H](CCCCN)C(=O)N[C@@H](CCCCN)C(=O)N[C@@H](CC(C)C)C(=O)N[C@@H](CCC(N)=O)C(=O)N[C@@H](CC(=O)O)C(=O)N[C@H](C(=O)N[C@@H](CCSC)C(=O)N[C@@H](CO)C(=O)N[C@@H](CCCNC(=N)N)C(N)=O)[C@@H](C)CC)C(C)C)[C@@H](C)O [D-Ala^2, Ala^8, Ala^15, Lys^22] (H-Y[dA]DAIFTASYRKVLAQLSARKKLQDIMSR-NH2; N-terminus assumed)
